Substitutions are numbered along the chain they refer to. Blank lines part the entries; values can stand above or below the binder they belong to. No end group written: not given here.
Key:
[1] = target: T1, human Y4 receptor (human, UniProt P50391 1-375); assay: 125I-PP displacement assay, human Y4 receptor membranes
T1 construct: whole, on cells; Used as a cell membrane preparation from transfected HEK-293T cells, not as intact cells; also called Human Y Receptor-4

[2] = target: T1, human Y4 receptor; assay: 125I-PP displacement assay, human Y4 receptor membranes; weaker reference compound

T1 sequence (P50391 whole entry): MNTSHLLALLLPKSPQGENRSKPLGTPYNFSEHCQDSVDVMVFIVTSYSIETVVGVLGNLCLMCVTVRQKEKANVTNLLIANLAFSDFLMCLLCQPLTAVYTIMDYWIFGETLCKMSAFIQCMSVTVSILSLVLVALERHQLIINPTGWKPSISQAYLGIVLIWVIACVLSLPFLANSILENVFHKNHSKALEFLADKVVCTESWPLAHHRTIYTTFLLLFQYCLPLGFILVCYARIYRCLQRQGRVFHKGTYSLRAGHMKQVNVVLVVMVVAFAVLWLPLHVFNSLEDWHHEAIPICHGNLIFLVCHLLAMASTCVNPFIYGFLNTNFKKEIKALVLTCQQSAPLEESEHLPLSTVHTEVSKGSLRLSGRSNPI

binding result [1]: binds
B1: compound of SEQ ID NO:24 (code 6453) (peptide)
peptide: APLEPVYPGDNATPEQMAQYAADLRRYINMLTRQRY
modifications: ends and bridges not checked
notes: Synthetic analogue of human PP; cited for changes at positions 34-36

binding result [1]: binds
B2: compound of SEQ ID NO:276 (4055746) (peptide)
peptide: B1 peptide with V6E, Q34P
modifications: ends and bridges not checked
notes: Synthetic analogue of human PP; cited for a change at position 6

binding result [2]: binds
B3: compound of SEQ ID NO:224 (Lys 19, code 4055291) (peptide)
peptide: B1 peptide with Q19K, Q34P
notes: Synthetic analogue of human PP with Lys at position 19

binding result [1]: binds
B4: compound of SEQ ID NO:167 (code 7214) (peptide)
peptide: B1 peptide with D23A, M30K, Q34P
notes: Synthetic analogue of human PP with Ala at position 23 and Lys at position 30

binding result [1]: binds
B5: compound of SEQ ID NO:260 (code 4055714) (peptide)
peptide: B1 peptide with M30V, Q34P
modifications: ends and bridges not checked
notes: Synthetic analogue of human PP; cited for changes at positions 29-31

binding result [1]: binds
B6: compound of SEQ ID NO:275 (code 4055745) (peptide)
peptide: B1 peptide with V6F, Q34P
modifications: ends and bridges not checked
notes: as for B2

binding result [1]: binds
B7: compound of SEQ ID NO:261 (code 4055715) (peptide)
peptide: B1 peptide with M30F, Q34P
modifications: ends and bridges not checked
notes: as for B5

binding result [1]: binds
B8: compound of SEQ ID NO:259 (code 4055713) (peptide)
peptide: B1 peptide with M30I, Q34P
modifications: ends and bridges not checked
notes: as for B5

binding result [2]: binds
B9: compound of SEQ ID NO:281 (Lys 30, code 4055855) (peptide)
peptide: B1 peptide with M30K, Q34P
notes: Synthetic analogue of human PP with Lys at position 30

binding result [1]: binds
B10: compound of SEQ ID NO:255 (code 4055708) (peptide)
peptide: B1 peptide with Q34P, Y36F
modifications: ends and bridges not checked
notes: as for B1

binding result [2]: binds
B11: compound of SEQ ID NO:277 (Ala 23, code 4055747) (peptide)
peptide: B1 peptide with D23A, Q34P
notes: Synthetic analogue of human PP with Ala at position 23

binding result [1]: binds
B12: compound of SEQ ID NO:702 (code 4058286) (peptide)
peptide: PAPLEAVYPGDNATPEQMARYYSELRRYINKLTRPRY
modifications: ends and bridges not checked
notes: Synthetic analogue of human PP; cited for Ala at position 5

binding result [1]: binds
B13: compound of SEQ ID NO:1090 (code 4059937) (peptide)
peptide: GAPLEPHAPGDNATPEEMAKYAAELRRYINKLTRPRY
modifications: ends and bridges not checked
notes: Synthetic analogue of human PP; cited for a change at position 7

binding result [1]: binds
B14: compound of SEQ ID NO:62 (code 6659) (peptide)
peptide: APLEPVYPGDNATPEQMAQYAADLRRYINMLTRPHRY
modifications: ends and bridges not checked
notes: as for B1

binding result [1]: binds
B15: compound of SEQ ID NO:52 (code 6647) (peptide)
peptide: KAPLEPVYPGDNATPEQMAQYAADLRRYINMLTRPRY
notes: Synthetic analogue of human PP with an additional amino acid at position 0

binding result [2]: binds
B16: compound of SEQ ID NO:9 (Ala 0, code 6433) (peptide)
peptide: B15 peptide with K1A
notes: Synthetic analogue of human PP with an additional Ala at position 0

binding result [1]: binds
B17: compound of SEQ ID NO:171 (code 7218) (peptide)
peptide: B15 peptide with K1A, M31K
modifications: ends and bridges not checked
notes: Synthetic analogue of human PP; introduced as additional Ala at position 0 and Lys at position 30, later in the same paragraph labelled 'Ala 0, Lys 19'

binding result [1]: binds
B18: compound of SEQ ID NO:168 (Ala 0, Ala 23 and Lys 30, code 7215) (peptide)
peptide: B15 peptide with K1A, D24A, M31K
notes: Synthetic analogue of human PP with additional Ala at position 0, Ala at 23 and Lys at 30

binding result [1]: binds
B19: compound of SEQ ID NO:348 (Ala 0, Lys19, Lys 30, code 4056385) (peptide)
peptide: B15 peptide with K1A, Q20K, M31K
notes: Synthetic analogue of human PP with additional Ala at position 0, Lys at 19 and Lys at 30

binding result [1]: binds
B20: compound of SEQ ID NO:53 (code 6650) (peptide)
peptide: B15 peptide with K1H
notes: as for B15

binding result [1]: binds
B21: compound of SEQ ID NO:56 (code 6653) (peptide)
peptide: B15 peptide with K1P
notes: as for B15
